For assay [1], the target named is T1, rat amylin receptor (rat calcitonin receptor + rat RAMP 3) (rat, UniProt P32214 25-516; Q9JJ73 23-147).
T1 construct: whole, on cells; Used as membranes prepared from the transfected cells; also called rAmylin-R; rat amylin 3(a) receptor
T1 sequence (looked up) 1: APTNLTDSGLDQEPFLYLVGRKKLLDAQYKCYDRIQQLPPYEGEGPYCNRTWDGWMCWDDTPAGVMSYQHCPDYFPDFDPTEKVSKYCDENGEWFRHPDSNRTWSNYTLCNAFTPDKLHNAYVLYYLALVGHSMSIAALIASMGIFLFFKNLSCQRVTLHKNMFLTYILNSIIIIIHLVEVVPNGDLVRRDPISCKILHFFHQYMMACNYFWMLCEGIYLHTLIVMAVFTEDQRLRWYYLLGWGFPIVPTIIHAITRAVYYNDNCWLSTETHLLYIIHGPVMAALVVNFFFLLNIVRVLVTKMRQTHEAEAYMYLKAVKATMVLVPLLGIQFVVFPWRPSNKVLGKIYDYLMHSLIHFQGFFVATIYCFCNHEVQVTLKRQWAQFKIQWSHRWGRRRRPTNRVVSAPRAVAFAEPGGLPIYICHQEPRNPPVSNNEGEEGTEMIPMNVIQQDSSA
T1 sequence (looked up) 2: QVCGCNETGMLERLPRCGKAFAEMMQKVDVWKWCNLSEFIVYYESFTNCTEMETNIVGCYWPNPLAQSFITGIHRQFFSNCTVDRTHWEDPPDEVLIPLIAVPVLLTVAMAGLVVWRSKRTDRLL
Briefly: SPA competition with 125I-rat amylin, membranes of BHK cells with rat calcitonin receptor + rat RAMP3 (Assay VI).

The target of assay [2] is T2, rat calcitonin receptor (rat, UniProt P32214 25-516).
T2 construct: whole, on cells; Used as membranes prepared from the transfected cells; also called rCTR; rat calcitonin (a) receptor
T2 sequence (looked up): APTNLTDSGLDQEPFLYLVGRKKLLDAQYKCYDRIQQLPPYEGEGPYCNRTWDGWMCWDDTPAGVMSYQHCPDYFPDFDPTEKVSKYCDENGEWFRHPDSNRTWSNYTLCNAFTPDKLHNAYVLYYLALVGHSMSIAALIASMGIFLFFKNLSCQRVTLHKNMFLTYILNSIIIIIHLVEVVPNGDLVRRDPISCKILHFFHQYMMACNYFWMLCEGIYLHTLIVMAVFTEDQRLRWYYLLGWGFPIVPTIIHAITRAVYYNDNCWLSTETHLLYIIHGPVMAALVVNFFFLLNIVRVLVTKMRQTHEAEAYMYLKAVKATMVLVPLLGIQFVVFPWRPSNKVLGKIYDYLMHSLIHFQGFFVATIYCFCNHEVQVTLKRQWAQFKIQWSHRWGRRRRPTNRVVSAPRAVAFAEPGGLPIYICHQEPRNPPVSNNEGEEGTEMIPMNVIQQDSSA
Briefly: ratio IC50 rat calcitonin receptor / IC50 rat amylin receptor (Assays VIII and VI).

Assay [3] addresses T3, human calcitonin receptor (human, UniProt P30988 25-474).
T3 construct: whole, on cells; Used as membranes prepared from the transfected cells (Assay VII); also called hCTR; hCT
T3 sequence (looked up): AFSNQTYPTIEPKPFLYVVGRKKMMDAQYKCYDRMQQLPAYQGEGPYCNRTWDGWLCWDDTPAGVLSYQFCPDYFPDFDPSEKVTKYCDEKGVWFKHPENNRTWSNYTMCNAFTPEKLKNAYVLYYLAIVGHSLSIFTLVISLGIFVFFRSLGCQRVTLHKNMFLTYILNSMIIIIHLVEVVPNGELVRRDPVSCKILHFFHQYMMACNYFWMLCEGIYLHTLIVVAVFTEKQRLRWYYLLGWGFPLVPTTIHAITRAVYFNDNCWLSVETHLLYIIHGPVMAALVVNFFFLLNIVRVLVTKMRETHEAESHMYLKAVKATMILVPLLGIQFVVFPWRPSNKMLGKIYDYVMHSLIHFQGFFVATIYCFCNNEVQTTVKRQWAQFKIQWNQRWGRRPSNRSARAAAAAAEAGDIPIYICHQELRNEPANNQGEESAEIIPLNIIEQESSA
The assay is described as follows: ratio IC50 human calcitonin receptor / IC50 human amylin receptor (Assays VII and V). As for the experimental part: The resulting pellet was resuspended, homogenized and centrifuged (20.000 rpm, 15 min) in a buffer containing 20 mM Na-HEPES and 0.1 mM EDTA (pH 7.4, buffer 2). The resulting pellet was resuspended in buffer 2 and protein concentration was measured (BCA protein Assay, Pierce). The homogenate was kept cold during the whole procedure. The membranes were kept at −80° C. until use. The assay was performed in a 384 well Optiplate (PerkinElmer) in a total volume of 40 ul. Membranes were mixed with SPA beads. Final concentration of membranes 35 ng/μL final and SPA beads was 0.05 mg/well. Test-compounds were dissolved in DMSO and further diluted in assay buffer (50 mM Hepes, pH 7.4, 1 mM CaCl2, 5 mM MgCl₂, 0.1% OA and 0.02% Tween20). […] The final mixture was incubated with shaking at 400 rpm for 120 min at 25° C. prior to centrifugation (1500 rpm, 10 min). Samples were analyzed on TopCounter™ (Packard). The IC₅₀ was calculated using (one site binding competition analysis) GraphPad Prism5 as a measure of receptor affinity.
Membranes were prepared in the following way; the cells were rinsed with PBS and incubated with Versene for approximately 5 min before harvesting. The cells were flushed with PBS and the cell-suspension was centrifuged for 5 min at 1000 rpm. Cells were homogenized (Ultrathurrax) in a buffer containing 20 mM Na-HEPES and 10 mM EDTA (pH 7.4) and centrifuged at 20.000 rpm for 15 min. The resulting pellet was resuspended, homogenized and centrifuged (20.000 rpm, 15 min) in a buffer containing 20 mM Na-HEPES and 0.1 mM EDTA (pH 7.4, buffer 2). The resulting pellet was resuspended in buffer 2 and protein concentration was measured (BCA protein Assay, Pierce). The homogenate was kept cold during the whole procedure. The membranes were kept at −80° C. until use. Assay was performed in a 384 well Optiplate (PerkinElmer) in a total volume of 40 ul. Membranes were mixed with SPA beads.

Assay [4] addresses T2, rat calcitonin receptor. The assay is described as follows: SPA competition with 125I-calcitonin, membranes of BHK cells with rat calcitonin receptor (Assay VIII).
The target in assay [5] is T4, human calcitonin receptor (human, UniProt P30988 25-474).
T4 construct: whole, on cells; Assay used cell membranes of the transfected BHK cells; also called hCTR; hCT
T4 sequence (looked up): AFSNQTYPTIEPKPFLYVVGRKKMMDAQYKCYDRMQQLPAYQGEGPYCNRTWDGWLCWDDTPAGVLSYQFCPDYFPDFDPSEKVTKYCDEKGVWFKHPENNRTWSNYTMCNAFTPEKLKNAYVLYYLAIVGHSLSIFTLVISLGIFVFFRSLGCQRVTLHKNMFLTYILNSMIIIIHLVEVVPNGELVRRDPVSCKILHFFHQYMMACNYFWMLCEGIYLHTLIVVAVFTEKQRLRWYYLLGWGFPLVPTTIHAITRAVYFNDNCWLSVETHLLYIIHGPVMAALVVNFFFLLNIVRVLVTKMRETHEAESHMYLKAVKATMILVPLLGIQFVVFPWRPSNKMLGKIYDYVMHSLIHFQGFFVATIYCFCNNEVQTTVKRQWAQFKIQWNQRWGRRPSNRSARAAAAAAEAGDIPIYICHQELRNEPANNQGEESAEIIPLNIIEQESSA
Briefly: SPA radioligand competition (125I-calcitonin), membranes of BHK cells with human calcitonin receptor. Put shortly: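 BHK hCTR membranes 35 ng/μL + SPA beads 0.05 mg/well; buffer 50 mM Hepes pH 7.4, 1 mM CaCl2, 5 mM MgCl₂, 0.1% OA, 0.02% Tween20. 120 min, 25° C., shaking. Scintillation count; IC50 by one-site binding competition.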

For assay [6], the target named is T4, human calcitonin receptor. The assay is described as follows: ratio IC50 hCTR / IC50 hAmylin-R of the two SPA competition assays; reference: human amylin receptor. An outline of the steps: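 Competition binding by SPA with cell membranes (35 ng/μL) and SPA beads in 50 mM Hepes pH 7.4 with 1 mM CaCl2, 5 mM MgCl2, 0.1% OA and 0.02% Tween20. Incubated 120 min at 25 °C with shaking, then counted.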

Numbered stars: 1 amine (or outer) side, 2 acyl side, 3 side chain; on linkers, the order of the positions; unused ones are H or OH. Bridge positions count the residues as written; N and C are the ends. Side chains are listed from the residue outwards. Ends that are not written are not given here. * marks the point of attachment. C20 diacid = O=C(O)CCCCCCCCCCCCCCCCCCC(=O)*; γGlu = O=C(O)[C@H](CCC(=O)[*:2])N[*:1]; AEEA = NCCOCCOCC(=O)O

B1: N^α1-[2-[2-[2-[[2-[2-[2-[[(4S)-4-carboxy-4-(19-carboxynonadecanoylamino)butanoyl]amino]ethoxy]ethoxy]acetyl]amino]ethoxy]ethoxy]acetyl]-[Glu14,Arg17,Pro21,Pro27 … (peptide)
peptide: {C20 diacid-γGlu-AEEA-AEEA}-KCNTATCATQRLAEFLRHSSPNFGAIPSSTNVGSNTP-NH2
modifications: disulfide 2-7
SMILES: CC[C@H](C)[C@H](NC(=O)[C@H](C)NC(=O)CNC(=O)[C@H](Cc1ccccc1)NC(=O)[C@H](CC(N)=O)NC(=O)[C@@H]1CCCN1C(=O)[C@H](CO)NC(=O)[C@H](CO)NC(=O)[C@H](Cc1c[nH]cn1)NC(=O)[C@H](CCCNC(=N)N)NC(=O)[C@H](CC(C)C)NC(=O)[C@H](Cc1ccccc1)NC(=O)[C@H](CCC(=O)O)NC(=O)[C@H](C)NC(=O)[C@H](CC(C)C)NC(=O)[C@H](CCCNC(=N)N)NC(=O)[C@H](CCC(N)=O)NC(=O)[C@@H](NC(=O)[C@H](C)NC(=O)[C@@H]1CSSC[C@H](NC(=O)[C@H](CCCCN)NC(=O)COCCOCCNC(=O)COCCOCCNC(=O)CC[C@H](NC(=O)CCCCCCCCCCCCCCCCCCC(=O)O)C(=O)O)C(=O)N[C@@H](CC(N)=O)C(=O)N[C@@H]([C@@H](C)O)C(=O)N[C@@H](C)C(=O)N[C@@H]([C@@H](C)O)C(=O)N1)[C@@H](C)O)C(=O)N1CCC[C@H]1C(=O)N[C@@H](CO)C(=O)N[C@@H](CO)C(=O)N[C@H](C(=O)N[C@@H](CC(N)=O)C(=O)N[C@H](C(=O)NCC(=O)N[C@@H](CO)C(=O)N[C@@H](CC(N)=O)C(=O)N[C@H](C(=O)N1CCC[C@H]1C(N)=O)[C@@H](C)O)C(C)C)[C@@H](C)O
notes: Derivative of human amylin; also called compound 20
In the case of B1, the IC50 in assay [1] is 0.696 nM; in the assay with rat calcitonin receptor [4] it was 4.43 nM. For the same molecule, in the assay with rat calcitonin receptor [2], the “Ratio rCT/rAmylin binding” value worked out at 6.4. Further, the “Ratio hCT/hAmylin binding” value in assay [3] worked out at 3.6.

B2: N^α1-[2-[2-[2-[[2-[2-[2-[[(4S)-4-carboxy-4-(19-carboxynonadecanoylamino)butanoyl]amino]ethoxy]ethoxy]acetyl]amino]ethoxy]ethoxy]acetyl]-[Arg17,Pro21,Pro27]-h-am … (peptide)
peptide: KCNTATCATQRLANFLRHSSPNFGAIPSSTNVGSNTY
modifications: C20 diacid-gGlu-2xOEG acylated on the alpha amino group of the N-terminal residue (Lys 1); disulfide Cys2-Cys7; C-terminal amide
notes: Derivative of human amylin; also called compound 24
Consider B2, for which the IC50 in assay [1] stood at 3.01 nM; with rat calcitonin receptor [4], 350 nM. The “Ratio rCT/rAmylin binding” value in the assay with rat calcitonin receptor [2] came out at 116. Further, the “Ratio hCT/hAmylin binding” value in assay [3] was 90.

B3: N^α1-[(4S)-4-carboxy-4-(19-carboxynonadecanoylamino)butanoyl]-[Arg17,Pro21,Pro27,Arg34]-h-amylin (peptide)
peptide: KCNTATCATQRLANFLRHSSPNFGAIPSSTNVGRNTY
modifications: C20 diacid-gGlu acylated on the alpha amino group of the N-terminal residue (Lys 1); disulfide Cys2-Cys7; C-terminal amide
notes: Derivative of human amylin; also called compound 39
For B3, the IC50 amounted to 1.77 nM in assay [1] and 96.4 nM with rat calcitonin receptor [4]. In addition, the “Ratio rCT/rAmylin binding” value with rat calcitonin receptor [2] turned out to be 54.5. Moreover, in assay [3], the “Ratio hCT/hAmylin binding” value turned out to be 29.

B4: N^ε1-[(4S)-4-carboxy-4-(19-carboxynonadecanoylamino)butanoyl]-[Arg17,Pro21,Pro27]-h-amylin (peptide)
peptide: K([γGlu-C20 diacid])CNTATCATQRLANFLRHSSPNFGAIPSSTNVGSNTY-NH2
modifications: disulfide 2-7; N-terminus assumed
SMILES: CC[C@H](C)[C@H](NC(=O)[C@H](C)NC(=O)CNC(=O)[C@H](Cc1ccccc1)NC(=O)[C@H](CC(N)=O)NC(=O)[C@@H]1CCCN1C(=O)[C@H](CO)NC(=O)[C@H](CO)NC(=O)[C@H](Cc1c[nH]cn1)NC(=O)[C@H](CCCNC(=N)N)NC(=O)[C@H](CC(C)C)NC(=O)[C@H](Cc1ccccc1)NC(=O)[C@H](CC(N)=O)NC(=O)[C@H](C)NC(=O)[C@H](CC(C)C)NC(=O)[C@H](CCCNC(=N)N)NC(=O)[C@H](CCC(N)=O)NC(=O)[C@@H](NC(=O)[C@H](C)NC(=O)[C@@H]1CSSC[C@H](NC(=O)[C@@H](N)CCCCNC(=O)CC[C@H](NC(=O)CCCCCCCCCCCCCCCCCCC(=O)O)C(=O)O)C(=O)N[C@@H](CC(N)=O)C(=O)N[C@@H]([C@@H](C)O)C(=O)N[C@@H](C)C(=O)N[C@@H]([C@@H](C)O)C(=O)N1)[C@@H](C)O)C(=O)N1CCC[C@H]1C(=O)N[C@@H](CO)C(=O)N[C@@H](CO)C(=O)N[C@H](C(=O)N[C@@H](CC(N)=O)C(=O)N[C@H](C(=O)NCC(=O)N[C@@H](CO)C(=O)N[C@@H](CC(N)=O)C(=O)N[C@H](C(=O)N[C@@H](Cc1ccc(O)cc1)C(N)=O)[C@@H](C)O)C(C)C)[C@@H](C)O
notes: Synthetic analogue; also called compound 48
Consider B4, for which the IC50 in assay [5] was determined as 30.9 nM. Besides, the “Ratio hCT/hAmylin binding” value in assay [6] was determined as 69.7.

Values taken from US20140087995A1 (published 2014).
